Source: the RNAGym collection of RNA variant scans (doi:10.1021/acssynbio.7b00057)

B1: Pistol ribozyme (parent)
chain: GGGUCGUUGUUCCAUAAUCGCGUGGAUAUGGCACGCAAGUUUCUACCGGGCACCGUAAAUGUCCGACUGGAGCCGUUCGGGCGGCUAUAAACAGACCUCAGGCCCGAAGCGUGGCGGCACCUGCCGCCGGUGGUAAAAAAGAUCGGAAGAGCACACGUCU

Variants of: B1
Experiment: aptazyme ON/OFF ratio, guanine; higher = stronger switching; co-transcriptional cleavage with and without guanine

| Variant | aptazyme ON/OFF ratio |
| --- | --- |
| U7A G9C U10C C12A C13A | 1.07 |
| U7A G9C U10C C12A C13U | 1.04 |
| U7A G9C U10G U11G | 1.06 |
| U7A G9C U10G U11C | 1.03 |
| U7A G9C U10G U11A | 1.03 |
| U7A G9U C12A C13G | 1.21 |
| U7A G9U C12A C13A | 1.27 |
| U7A G9U C12A C13U | 1.28 |
| U7A G9U U10A U11G C12G | 1.18 |
| U7A G9U U10A U11G C12U | 1.39 |
| U7A G9U U10A U11G C12A | 1.07 |
| U7A G9U U10A C12U C13U | 1.17 |
| U7A G9U U10A C12U C13A | 1.29 |
| U7A G9U U10A C12U C13G | 1.13 |
| U7A G9U U10A C13U | 1.35 |
| U7A G9U U10A C13G | 1.05 |
| U7A G9U U10A C13A | 1.08 |
| U7A G9U U10A U11C C12U C13U | 1.18 |
| U7A G9U U10A U11C C12U C13A | 1.23 |
| U7A G9U U10A U11C C12U C13G | 1.12 |
| U7A G9C U10G U11C C12G C13G | 1.21 |
| U7A G9C U10G U11C C12G C13U | 1.17 |
| U7A G9C U10G U11C C12G C13A | 1.11 |
| U7A G9C U10C C12G C13U | 1.05 |

| Variant | aptazyme ON/OFF ratio |
| --- | --- |
| U7A G9C U10C C12G C13G | 1.07 |
| U7A G9C U10C C12G C13A | 1.03 |
| U7A G9U U10C U11C C12G C13U | 1.01 |
| U7A G9U U10C U11C C12G C13G | 1.04 |
| U7A G9U U10C U11C C12G C13A | 1.02 |
| U7A G9C U10G | 1.32 |
| U7A G9C U10C | 2.21 |
| U7A G9C U10C C13A | 1.01 |
| U7A G9C U10C C13G | 1.05 |
| U7A G9C U10C C13U | 1.22 |
| U7A G9C U10G U11G C12A | 1.11 |
| U7A G9C U10G U11G C12G | 1.16 |
| U7A G9C U10G U11G C12U | 1.14 |
| U7A G9U U10C U11G C12U C13A | 1.15 |
| U7A G9U U10C U11G C12U C13G | 1.12 |
| U7A G9U | 1.86 |
| U7A G9C U10G U11A C12U C13U | 1.05 |
| U7A G9C U10G U11A C12U C13G | 1.07 |
| U7A G9C U10G U11A C12U C13A | 1.06 |
| U7A G9C U10G C12A C13A | 1.08 |
| U7A G9C U10G C12A C13G | 1.09 |
| U7A G9C U10G C12A C13U | 1.09 |
| U7A G9C U10A U11G C12A C13G | 1.07 |
| U7A G9C U10A U11G C12A C13U | 1.05 |

| Variant | aptazyme ON/OFF ratio |
| --- | --- |
| U7A G9C U10A U11G C12A C13A | 1.11 |
| U7A G9C U11G C13A | 1.13 |
| U7A G9C U11G C13U | 1.25 |
| U7A G9C U11G C13G | 1.07 |
| U7A G9U U10A U11A | 1.43 |
| U7A G9U U10A U11G | 1.31 |
| U7A G9U U10A U11C | 1.02 |
| U7A G9C U10G U11C C13A | 1.06 |
| U7A G9C U10G U11C C13U | 1.03 |
| U7A G9C U10G U11C C13G | 1.05 |
| U7A G9U U10A U11C C13U | 1.02 |
| U7A G9U U10A U11C C13G | 1.07 |
| U7A G9U U10A U11C C13A | 1.09 |
| U7A G9C U11A C12G C13A | 1.04 |
| U7A G9C U11A C12G C13G | 1.08 |
| U7A G9C U11A C12G C13U | 1.08 |
| U7A G9C U10A U11G C13G | 1.06 |
| U7A G9C U10A U11G C13A | 1.03 |
| U7A G9C U10A U11G C13U | 1.09 |
| U7A G9U U10C U11C C12U C13U | 1.07 |
| U7A G9U U10C U11C C12U C13G | 1.02 |
| U7A G9U U10C U11C C12U C13A | 1.06 |
| U7A G9C U11C C12G | 1.06 |
| U7A G9C U11C C12A | 1.09 |

| Variant | aptazyme ON/OFF ratio |
| --- | --- |
| U7A G9C U11C C12U | 1.09 |
| U7A G9C U10G U11G C13A | 1.13 |
| U7A G9C U10G U11G C13U | 1.1 |
| U7A G9C U10G U11G C13G | 1.17 |
| U7A G9C U10C U11A C13U | 1.09 |
| U7A G9C U10C U11A C13A | 1.07 |
| U7A G9C U10C U11A C13G | 1.12 |
| U7A G9U U10A U11G C13A | 1.11 |
| U7A G9U U10A U11G C13G | 1.07 |
| U7A G9U U10A U11G C13U | 1.21 |
| U7A G9U U10C C12A | 1.14 |
| U7A G9U U10C C12U | 1.22 |
| U7A G9U U10C C12G | 1.29 |
| U7A G9U U10A U11A C13A | 1.17 |
| U7A G9U U10A U11A C13U | 1.16 |
| U7A G9U U10A U11A C13G | 1.1 |
| U7A G9U U10C U11C C13U | 1.02 |
| U7A G9U U10C U11C C13A | 1.01 |
| U7A G9U U10C U11C C13G | 1.04 |
| U7A G9U U10C U11C C12A C13A | 1.03 |
| U7A G9U U10C U11C C12A C13U | 1.07 |
| U7A G9U U10C U11C C12A C13G | 1.06 |
| U7A G9C U11A C13U | 1.07 |
| U7A G9C U11A C13G | 1.08 |

| Variant | aptazyme ON/OFF ratio |
| --- | --- |
| U7A G9C U11A C13A | 1.02 |
| U7A G9U U10A U11C C12A | 1.26 |
| U7A G9U U10A U11C C12U | 1.08 |
| U7A G9U U10A U11C C12G | 1.25 |
| U7A G9U U10C U11G | 1.32 |
| U7A G9U U10C U11C | 1.07 |
| U7A G9U U10C U11A | 1.31 |
| U7A G9U U10A U11G C12A C13A | 1.08 |
| U7A G9U U10A U11G C12A C13G | 1.19 |
| U7A G9U U10A U11G C12A C13U | 1.1 |
| U7A G9U U10C U11G C12G C13G | 1.16 |
| U7A G9U U10C U11G C12G C13A | 1.14 |
| U7A G9U U10C U11G C12G C13U | 1.11 |
| U7A G9C U10G C13G | 1.14 |
| U7A G9C U10G C13U | 1.33 |
| U7A G9C U10G C13A | 1.15 |
| U7A G9C U10G U11G C12U C13G | 1.12 |
| U7A G9C U10G U11G C12U C13A | 1.09 |
| U7A G9C U10G U11G C12U C13U | 1.16 |
| U7A G9C U11G C12A C13U | 1.29 |
| U7A G9C U11G C12A C13G | 1.14 |
| U7A G9C U11G C12A C13A | 1.1 |
| U7A G9C U10C U11C C13A | 1.01 |
| U7A G9C U10C U11C C13G | 1.01 |

| Variant | aptazyme ON/OFF ratio |
| --- | --- |
| U7A G9C U10C U11C C13U | 1.03 |
| U7A G9U U10C U11A C12U C13U | 1.22 |
| U7A G9U U10C U11A C12U C13A | 1.23 |
| U7A G9U U10C U11A C12U C13G | 1.2 |
| U7A G9C U10G C12U C13G | 1.11 |
| U7A G9C U10G C12U C13A | 1.06 |
| U7A G9C U10G C12U C13U | 1.56 |
| U7A G9U U10A U11A C12A C13U | 1.3 |
| U7A G9U U10A U11A C12A C13G | 1.14 |
| U7A G9U U10A U11A C12A C13A | 1.1 |
| U7A G9U U10C U11C C12U | 1.03 |
| U7A G9U U10C U11C C12A | 1.09 |
| U7A G9U U10C U11C C12G | 1.05 |
| U7A G9C U10G U11G C12A C13A | 1.11 |
| U7A G9C U10G U11G C12A C13U | 1.08 |
| U7A G9C U10G U11G C12A C13G | 1.06 |
| U7A G9C U10C U11C C12A C13A | 1.02 |
| U7A G9C U10C U11C C12A C13G | 1.03 |
| U7A G9C U10C U11C C12A C13U | 1.02 |
| U7A G9U U10A C12G C13U | 1.11 |
| U7A G9U U10A C12G C13A | 1.25 |
| U7A G9U U10A C12G C13G | 1.26 |
| U7A G9C U10A U11G | 1.09 |
| U7A G9U U10A U11G C12U C13A | 1.16 |

| Variant | aptazyme ON/OFF ratio |
| --- | --- |
| U7A G9U U10A U11G C12U C13G | 1.13 |
| U7A G9U U10A U11G C12U C13U | 1.22 |
| U7A G9C U10G U11C C12A C13A | 1.05 |
| U7A G9C U10G U11C C12A C13G | 1.05 |
| U7A G9C U10G U11C C12A C13U | 1.06 |
| U7A G9C U10C U11G C12U | 1.06 |
| U7A G9C U10C U11G C12A | 1.04 |
| U7A G9C U10C U11G C12G | 1.1 |
| U7A G9C U10C U11G C13A | 1.06 |
| U7A G9C U10C U11G C13U | 1.08 |
| U7A G9C U10C U11G C13G | 1.08 |
| U7A G9U U10A C12A C13U | 1.19 |
| U7A G9U U10A C12A C13G | 1.07 |
| U7A G9U U10A C12A C13A | 1.1 |
| U7A G9U U10C U11G C12A C13U | 1.11 |
| U7A G9U U10C U11G C12A C13G | 1.2 |
| U7A G9U U10C U11G C12A C13A | 1.05 |
| U7A G9C U11G C12G C13A | 1.16 |
| U7A G9C U11G C12G C13U | 1.12 |
| U7A G9C U11G C12G C13G | 1.14 |
| U7A G9C U10G U11A C12G C13U | 1.06 |
| U7A G9C U10G U11A C12G C13G | 1.21 |
| U7A G9C U10G U11A C12G C13A | 1.07 |
